Laboratory results published in patent publication US20210196796A1 (SYNTHEKINE, published 2021).
Positions count from the first letter of the chain named. Numbers in names are those of the source.

B1: ΔT51, SQVLKA (ligand)
chain: APTSSSTKKTQLQLSQLLVLLKAILNGINNYKNPKLTRMLTFKFYMPKKAELKHLQCLEEELKPLEEVLNLAQSKNFHLRPRDLISNINVIVLELKGSETTFMCEYADETATIVEFLNRWITFCQSIISTLT
B2: M39V, SQVLKA (ligand)
chain: APTSSSTKKTQLQLSQLLVLLKAILNGINNYKNPKLTRVLTFKFYMPKKATELKHLQCLEEELKPLEEVLNLAQSKNFHLRPRDLISNINVIVLELKGSETTFMCEYADETATIVEFLNRWITFCQSIISTLT
B3: H55Y, SQVLKA (ligand)
chain: B2 chain with V39M, H55Y
B4: F42K, SQVLKA (ligand)
chain: B2 chain with V39M, F42K
B5: L80V, SQVLKA (ligand)
chain: B2 chain with V39M, L80V
B6: Q74S, SQVLKA (ligand)
chain: B2 chain with V39M, Q74S
B7: T51I, SQVLKA (ligand)
chain: B2 chain with V39M, T51I
B8: Q74H, SQVLKA (ligand)
chain: B2 chain with V39M, Q74H
B9: Q74N, SQVLKA (ligand)
chain: B2 chain with V39M, Q74N
B10: L80F, SQVLKA (ligand)
chain: B2 chain with V39M, L80F
B11: Q13W SQVLKA (ligand)
chain: B2 chain with Q13W, V39M

Each binder was assayed against T1, orthogonal hCD122 receptor (hoRb), hCD122 with H133D and Y134F (human, UniProt P14784 27-550) (assay: cell-based or functional assay).
T1 sequence: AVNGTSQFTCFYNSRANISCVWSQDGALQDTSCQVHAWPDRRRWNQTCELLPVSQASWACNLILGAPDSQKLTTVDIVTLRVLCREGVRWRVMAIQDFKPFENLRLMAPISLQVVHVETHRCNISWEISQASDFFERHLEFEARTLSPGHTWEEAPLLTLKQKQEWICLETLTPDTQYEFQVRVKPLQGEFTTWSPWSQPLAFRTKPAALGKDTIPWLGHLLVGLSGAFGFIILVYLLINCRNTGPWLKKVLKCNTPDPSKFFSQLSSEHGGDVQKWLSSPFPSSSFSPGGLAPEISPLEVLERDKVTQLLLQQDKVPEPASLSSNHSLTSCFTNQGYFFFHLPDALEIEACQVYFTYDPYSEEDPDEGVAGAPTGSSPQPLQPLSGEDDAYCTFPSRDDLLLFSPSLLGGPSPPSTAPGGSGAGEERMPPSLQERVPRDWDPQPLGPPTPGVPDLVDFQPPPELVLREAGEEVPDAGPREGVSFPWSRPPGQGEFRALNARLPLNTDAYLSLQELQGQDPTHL
For Relative Proliferation Fold Change 3F8 1:10 in this document: reference of the scale not given here.
For Relative Proliferation Fold Change 3F8 1:2 in this document: reference of the scale not given here.
For Relative Proliferation Fold Change 3F8 1:50 in this document: reference of the scale not given here.
For Relative Proliferation Fold Change NKL 1:10 in this document: reference of the scale not given here.
For Relative Proliferation Fold Change NKL 1:2 in this document: reference of the scale not given here.
For Relative Proliferation Fold Change NKL 1:50 in this document: reference of the scale not given here.

| Binder | NKL Ortho Proliferation Signal 1:2 | NKL Ortho Proliferation Signal 1:10 | NKL Ortho Proliferation Signal 1:50 | Relative Proliferation Fold Change NKL 1:2 [fold] | Relative Proliferation Fold Change NKL 1:10 [fold] | Relative Proliferation Fold Change NKL 1:50 [fold] |
| --- | --- | --- | --- | --- | --- | --- |
| B1 | 12100 | 10100 | 7780 | 1 | 0.71 | 0.58 |
| B2 | 42800 | 31300 | 15300 | 2.72 | 1.85 | 0.92 |
| B3 | 47100 | 37100 | 17800 | 3.72 | 2.34 | 1.22 |
| B4 | 11900 | 10500 | 8730 | 0.83 | 0.6 | 0.52 |
| B5 | 62500 | 51600 | 24300 | 4.26 | 3.13 | 1.58 |
| B6 | 54600 | 65700 | 35000 | 4.07 | 4.17 | 2.44 |
| B7 | 50800 | 37900 | 18500 | 3.57 | 2.64 | 1.4 |
| B8 | 58300 | 50300 | 23000 | 3.89 | 3.18 | 1.6 |
| B9 | 55100 | 47400 | 22600 | 4.23 | 3.18 | 1.67 |
| B10 | 61200 | 67800 | 33200 | 4.24 | 4.14 | 2.27 |
| B11 | 13700 | 12900 | 8730 | 1.24 | 0.84 | 0.63 |

Target: T1, orthogonal hCD122 receptor (hoRb), …
Assay: cell-based or functional assay
Remark: another data set of the same source

| Binder | 3F8 Ortho Proliferation Signal 1:2 [cts/min] | 3F8 Ortho Proliferation Signal 1:10 [cts/min] | 3F8 Ortho Proliferation Signal 1:50 [cts/min] | Relative Proliferation Fold Change 3F8 1:2 [fold] | Relative Proliferation Fold Change 3F8 1:10 [fold] | Relative Proliferation Fold Change 3F8 1:50 [fold] |
| --- | --- | --- | --- | --- | --- | --- |
| B1 | 9940 | 7070 | 1060 | 59.1 | 8.73 | 2.17 |
| B2 | 29200 | 22900 | 9630 | 110 | 51.3 | 16.7 |
| B3 | 24600 | 29500 | 16500 | 63 | 23.5 | 16.7 |
| B4 | 10300 | 5760 | 1570 | 43.5 | 12.7 | 2.2 |
| B5 | 34900 | 34800 | 21200 | 30.6 | 38 | 32.7 |
| B6 | 36400 | 32500 | 27100 | 18.7 | 56.7 | 33.8 |
| B7 | 31900 | 20200 | 11600 | 111 | 43.1 | 15.6 |
| B8 | 35100 | 28700 | 21200 | 64.7 | 42.9 | 53 |
| B9 | 34200 | 36400 | 21900 | 116 | 96.8 | 17.5 |
| B10 | 37200 | 26800 | 25800 | 1.01 | 2.8 | 16.8 |
| B11 | 27000 | 16900 | 6420 | 148 | 22.2 | 10.9 |
